Measured values from the supplement of paper PMC9170038.

System: MS2 coat protein
Experiment: apparent KD of MS2 coat protein; higher = weaker reporter binding
Details: Eterna round: R107
In short: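 For every design, apparent KD is the median of normalised binding-curve fits from its clusters. The RNA switches were transcribed on-chip from Illumina sequencing clusters and titrated with SNAP-549-labelled MS2 coat protein (twofold steps, 0.7 or 1.5 nM to 3 µM; 0.8–1.5 h to 10–20 min per step). Titrations used 100 mM Tris-HCl pH 7.5, 80 mM KCl, 4 mM MgCl2, without or with constant ligand.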

[1] = input ligand: theophylline 20 uM
[2] = input ligand: tryptophan 2.4 mM
[3] = input ligand: theophylline 2 mM

Row | Sequence | apparent KD of MS2 coat protein (input ligand: arginine 13.2 mM) [nM] | apparent KD of MS2 coat protein [1] [nM] | apparent KD of MS2 coat protein [2] [nM] | apparent KD of MS2 coat protein [3] [nM] | apparent KD of MS2 coat protein (input ligand: none) [nM]
1 | UCGUGUAUAUCGGAUACCAGUGAAAACGAUACAUGAGGAUCACCCAUGUGAGUUGAUGUACACCCUUGGCAGCUGUAUAUAUCUA [fokullin] | 16.1 | 22.7 | 18.6 |  | 
2 | UCGUGUAUAUCGGAUACCAGUGAAAUCGAUACAUGAGGAUCACCCAUGUGAGAGGAUGUACACCCUUGGCAGCUGUAUAUAUCUG [ll,lmullin] | 18 | 25.1 | 20.4 |  | 
3 | UCUAACAUGAGGAUCACCCAUGUACCGUCCCGAGGACCGGUACGGCCGCCACUCGUCUUGCUAAAACUGAAGUGAUCACAAGCCU [theeternabot_sameState_MS2_Trp_A_2] | 25.2 | 30.9 |  | 24.6 | 
4 | UGACAUUGCUCAGAUACCAGACGUGAGGAUCACCCACGUGCCAACAUGAGGAUCACCCAUGUCCCUUGGCAGCUGAGCAAUGUCU | 12.8 | 24.1 | 15.5 |  | 
5 | UGAGAGGGCGGAAGGAGCGACAUGAGGAUCACCCAUGUCUCCCGUUAUGGGAGUUCUUUAGGUCAGGUAGGUCGCCGGCCUCUCA [#1 Exclusion - Arginine B Attempt #10 (Inspired by Omei)] | 94.3 | 104 | 111 | 127 | 122
6 | UGGCAAGAGGGAAGGAGCGUCAGCUGAGUCACAUGAGGAUCACCCAUGUAGCACAUAGUGUGACAGGUAGGUCGCCCUCUGCCGU [SS-ArgB10] | 6.72 | 10.1 | 9.62 | 10.3 | 8.82
7 | UGGGAAGGAGGAAGGAGCGCCAUAAGGGUGACAGUCUGGGUACAUGAGGAUCACCCAUGUAGGCAGGUAGGUCGCCUCGCUCUCA [XArg-B15] | 26.2 | 12.8 | 12.5 | 14.3 | 9.53
8 | UGGGCUGGGUGCGUAAAGGGCCUGGCGCAUCGAGGACCGGUACGGCCGCCACUCGGCUGUACAUGAGGAUCACCCAUGUCAGGGU [#1 Same State - Tryptophan A Attempt #18 (HarryS)] | 45.9 | 552 | 364 | 506 | 192
9 | UGGGUCGGAUGAGGAAAUUGUCCGACGUAUCGAGGACCGGUACGGCCGCCACUCGGUUGUACAUGAGGAUCACCCAUGUCAGGGU [#1 Same State - Tryptophan A Attempt #15 (HarryS)] | 194 | 269 | 128 | 327 | 218
10 | UGGGUUGGACCAGGAAAUGGUCUGACGCACCGAGGACCGGUACGGCCGCCACUCGGCCGUACAUGAGGAUCACCCAUGUCGGUGU [#1 Same State - Tryptophan A Attempt #13 (HarryS)] | 107 | 486 | 740 | 1170 | 376
11 | UGGUACAUGAGGAUCACCCAUGUUCCAGAUACCAGAUACCCGGUUAUCCCUUGGCAGCUGGUGUUACAUGAGGAUCACCCAUGUU [Exclusion Theophylline A GF16] | 23.9 | 46 | 37.2 | 81.9 | 30.4
12 | UGGUACAUGGCGGCCGCCACUUCACGUAAAAUAAAAGCUUGAGGAUCACCCAAGUAAUAAGUUGGGAGGACCGGGUCAUGUACCU | 19.2 | 27 | 16.6 | 24.7 | 19.8
13 | UGGUAUGUAGGAAGGAGCGCAUACUUCACAUGAGGAUCACCCAUGUCGAGACGUGAGUCAGUGCAGGUAGGUCGCCUAGUUAUGA [Same State - Arginine B (Freestyle 22)] | 35.8 | 33.4 | 29 | 28.1 | 43
14 | UGGUCCGUCGGAAGGAGCGACAUGAGGAUCACCCAUGUCUCCCGUUAUGGGAGUUCUUUAGGUCAGGUAGGUCGCCGGCGGGUCA [#1 Exclusion - Arginine B Attempt #12 (Inspired by Omei)] | 91.6 | 209 | 144 | 220 | 111
15 | UGGUUUGUGAUGGAUACCAGCAGAGAAAACGUUUAUCCUAACAUGAGGAUCACCCAUGUAUGCCCUUGGCAGCUGUUGUGGGCUA [8.S] | 27.5 | 37.4 | 28.8 |  | 
16 | UGUAAUGGGAUCAACCCAUGAGAGUCUGAAGGAGCGAUCGUAAGAUCAGGUAGGUCGCGGGAGACAUGAGGAUCACCCAUGUAUA [#23 Exclusion - Arginine A] | 27.2 | 46.3 | 39.7 | 44.3 | 41
17 | UGUACCUAGUCGGCCGCCACUCCAAAAGGAGAGGAUCACCCUCCUAAACGAGUCAAAGACUCGAGGAGGACCGGGACUAGGUACU [Palindromic MS2 #AlternativeMS2 #Palindrome #StaticStem] | 30 | 41.8 | 14 | 33.9 | 30.4
18 | UGUACUAUGUGAAGGAGCGAGAAUCCUACAUGAGGAUCACCCAUGUAAGAGCGAAAGCUCACUCAGGUAGGUCGCACAUAGUACU [#17 Same State - Arginine B] | 31.7 | 44.1 | 48.8 | 43.7 | 42.9
19 | UGUAUGGACUGAAGGAGCGCCUCAAAAUAACAUGAGGAUCACCCAUGUAAGGCGAAAGCCGGGCAGGUAGGUCGCAGUCCAUACU [ArgBX 3 #StaticStem #MS2Late] | 15.8 | 16.1 | 12.7 | 17 | 11.2

Row | Sequence | apparent KD of MS2 coat protein (input ligand: arginine 13.2 mM) [nM] | apparent KD of MS2 coat protein [1] [nM] | apparent KD of MS2 coat protein [2] [nM] | apparent KD of MS2 coat protein [3] [nM] | apparent KD of MS2 coat protein (input ligand: none) [nM]
20 | UGUAUGGACUGAAGGAGCGCCUCAAAAUAACAUGAGGAUCACCCAUGUGGCGAAAGCCAAGGGCAGGUAGGUCGCAGUCCAUACU [ArgBX 4 #StaticStem #MS2Late] | 27.3 | 34.2 | 32 | 32.9 | 26.4
21 | UGUAUGGACUGAAGGAGCGGGUAAUAAAUCUGAGGAUCACCCAGGUAAUAGGCGAAAGCCGCCCAGGUAGGUCGCAGUCCAUACU | 13.3 | 27.5 | 23.1 | 18.8 | 14.7
22 | UGUAUGGACUGAAGGAGCGGGUUGAUAACAUGAGGAUCACCCAUGUAAAAGGCGAAAGCCGCCCAGGUAGGUCGCAGUCCAUACU | 4.19 | 19.5 | 10.9 | 13.1 | 10.1
23 | UGUAUGUGAUCUGAUACCAGAGAUGAUAACCUGAGGAUCACCCUGGUAAGGCGAAAGCCACUCCCUUGGCAGCAGAUCGCAUACU | 48.3 | 40.7 | 39 | 26.3 | 34.4
24 | UGUAUGUGAUCUGAUACCAGCUAAUAAGCUUGAGGAUCACCCAAGUGGAGCGGAAACGCAGGCCCUUGGCAGCAGAUCGCAUACU [Denovo 9 #StaticStem #AlternativeMS2] | 54.6 | 34.4 | 70.7 | 11.7 | 76.4
25 | UGUAUGUGAUCUGAUACCAGUCCAACUGGUAAAGCACGAGGAUCACCCGUGUAAAAUUGGGACCCUUGGCAGCAGAUCGCAUACU | 96.8 | 352 | 115 | 57.8 | 228
26 | UGUAUGUGAUUUGAUACCAGACCAGCUGGUGGUACAUGAGGAUCACCCAUGUAGGUUUGGGUCCCUUGGCAGCAAAUCGCAUACU [SSTheo B #24] | 54.6 | 64.5 | 44 |  | 
27 | UGUCAUGGAAACAUGACUGGUUCUACCGGUCGAGGACCGGUACGGCCGCCACUCGGUUGGUGGCACAUGAGGAUCACCCAUGUUA [SS Tryp A #13] | 28.5 | 51.8 | 29.7 | 44.7 | 30.3
28 | UGUGUAAUUGUCUGGUAGAUUUAUUUUUUUCGAGGACCGGUACGGCCGCCACUCGUUAUUUACAUGAGGAUCACCCAUGUUAGCU [JR_ExcTryptoA_Sub007] | 12.4 | 22.3 |  | 15.5 | 
29 | UUACAUGAGGAUCACCCAUGUUUACUAUGUCGAGGACCGGUACGGCCGCCACUCGUAUUUGAUGAUUUAGGUGCCACAAGUUAUU [JR_Nu_ExcTryptoA_Sub024] | 16.1 | 26.6 |  | 22.6 | 
30 | UUAGAUAUGACAGAUACCAGCGUGUUGUAGAACAUGAGGAUCACCCAUGUAGUGAUCAAGCGCCCUUGGCAGCUGGUAUGUUUGG [7.X] | 61.5 | 277 | 179 |  | 
31 | UUAUGCAGGUCGGCCGCCACUACACACAUGAGGAUCACCCAUGUAGUUACUGGGUGAAGUGGCAGUAGGACCGGGACCUGCACAC [Brourdmod14] | 148 | 403 | 891 | 823 | 470
32 | UUAUGCAGGUCGGCCGCCACUACACACAUGAGGAUCACCCAUGUAGUUACUGGGUGAAGUGGCAGUAGGACCGGGACCUGCACAU [Brourdmod13] | 52 | 739 | 465 | 850 | 479
33 | UUGGUAGGACAGCUCAUAUAAGCAUGUGAUACCAGCUAGAAAACUAGCCCUUGGCAGCACUUUACAUGAGGAUCACCCAUGUCCC [EThA NP+V+V2 #2 +-Same Structure] | 68.8 | 258 | 145 |  | 
34 | UUGUGGCGCUCGGCCGCCACUCCGACAUGAGGAUCACCCAUGUUCUACAUGAGGAUCACCCAUGUGAGGACCGGGAGACACUUCC [Exclusion Tryptophan B GF13] | 53 | 109 |  | 116 | 
35 | UUUAACGGGCACGAUACCAGCGACAUGAGGAUCACCCAUGUAAACGCGGUGACGGUCUGUUGCCCUUGGCAGCGUGCAAAAUAAU [Zaquarar] | 43 | 157 | 48.5 | 94.3 | 67.6
36 | UUUAUUAUUGACUCGUUAUUGUUUUUGGAUCGAGGACCGGUACGGCCGCCACUCGUGAUAUACAUGAGGAUCACCCAUGUUAGCA [JR_Nu_SSTryptoA_Sub020] | 19.3 | 22 |  | 17.2 | 
37 | UUUGGCGGCGAUCUGGGUUUACCAGAUCGGCGAGGACCGGUACGGCCGCCACUCGUGUUUCUUUGACAUGAGGAUCACCCAUGUA [whbob_SS_trypto A_f3] | 34.9 | 74.6 |  | 102 | 
